Reference: PMC2710519

Test system: RSC complex (17 subunits, 1.197 MDa);histone octamer (recombinant) (yeast;Xenopus laevis)
Test: AFM
Settings: RSC:mononucleosome 1:3, AFM: 1 nM RSC with 21 nM 1 kbp DNA without ATP, or RSC:mononucleosome 1:3 for 30 min with or without 4 mM ATP or ATPgS, buffer, salt, pH and temperature not in …

## 601 mononucleosome with 236 and 252 bp arms (240/240, 635 bp)
4 mM ATP, 50% of RSC complexes nucleosome-bound
  binding signal (% of substrate RSC-bound): 32
4 mM ATPgS, 76% of RSC complexes on bare DNA arms
  binding signal (% of substrate RSC-bound): 52
No ATP, 72% of RSC complexes on bare DNA arms
  binding signal (% of substrate RSC-bound): 25
